Measured values from patent US20160272683A1 (Novo Nordisk, published 2016).
Numbered stars: 1 amine (or outer) side, 2 acyl side, 3 side chain; on linkers, the order of the positions; unused ones are H or OH. Square brackets hold non-standard residues; d marks the D form. Side chains are listed from the residue outwards. * marks the point of attachment. C20 diacid = O=C(O)CCCCCCCCCCCCCCCCCCC(=O)*; C18 diacid = O=C(O)CCCCCCCCCCCCCCCCC(=O)*; γGlu = O=C(O)[C@H](CCC(=O)[*:2])N[*:1]

T1: human calcitonin receptor on BHK570/CRE-luc cells (human, UniProt P30988 25-474)
T1 sequence (looked up): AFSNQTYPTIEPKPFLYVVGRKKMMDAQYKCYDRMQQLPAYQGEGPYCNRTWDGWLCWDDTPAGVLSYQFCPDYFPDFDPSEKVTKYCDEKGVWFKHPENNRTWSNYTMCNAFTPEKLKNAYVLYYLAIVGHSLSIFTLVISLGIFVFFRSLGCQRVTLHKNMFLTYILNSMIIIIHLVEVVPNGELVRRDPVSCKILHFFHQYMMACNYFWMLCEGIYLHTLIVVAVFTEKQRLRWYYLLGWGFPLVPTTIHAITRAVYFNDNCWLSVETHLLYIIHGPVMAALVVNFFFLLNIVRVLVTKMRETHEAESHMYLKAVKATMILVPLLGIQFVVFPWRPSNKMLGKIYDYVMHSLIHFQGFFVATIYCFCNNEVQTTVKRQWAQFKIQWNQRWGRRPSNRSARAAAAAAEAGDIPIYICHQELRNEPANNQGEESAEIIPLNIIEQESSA

T2: human amylin 3(a) receptor (human calcitonin receptor co-expressed with RAMP-3) on BHK570/CRE-luc cells (human, UniProt P30988 25-474; O60896 24-148)
T2 sequence (looked up) 1: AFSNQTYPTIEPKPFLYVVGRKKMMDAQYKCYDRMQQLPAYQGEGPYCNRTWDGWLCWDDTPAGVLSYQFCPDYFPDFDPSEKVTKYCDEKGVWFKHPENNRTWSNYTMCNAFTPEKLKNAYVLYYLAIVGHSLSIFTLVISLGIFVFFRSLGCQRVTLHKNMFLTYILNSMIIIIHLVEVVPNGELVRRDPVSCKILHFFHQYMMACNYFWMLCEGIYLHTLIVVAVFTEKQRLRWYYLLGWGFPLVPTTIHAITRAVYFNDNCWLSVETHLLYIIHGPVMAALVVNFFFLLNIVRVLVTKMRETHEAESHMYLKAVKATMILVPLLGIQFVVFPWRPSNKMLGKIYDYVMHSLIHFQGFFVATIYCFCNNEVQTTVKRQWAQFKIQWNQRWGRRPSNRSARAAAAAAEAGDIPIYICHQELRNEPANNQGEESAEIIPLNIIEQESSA
T2 sequence (looked up) 2: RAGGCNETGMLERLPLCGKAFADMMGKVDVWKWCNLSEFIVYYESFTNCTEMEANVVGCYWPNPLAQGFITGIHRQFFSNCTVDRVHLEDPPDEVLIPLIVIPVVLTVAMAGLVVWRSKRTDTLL


Columns and labels:
[1] = molecular target: T1, human calcitonin receptor on …; assay: cell-based or functional assay
[2] = molecular target: T2, human amylin 3(a) receptor (human …); assay: cell-based or functional assay

Row | Binder | hCTR funct. EC50 (pM), tested with HSA [1] [pM] | hAmylin-R funct. EC50 (pM), tested with HSA [2] [pM]
1 | {C18 diacid-γGlu}-ASELSTAALGRLSAELHELATLPRTETGSGPP-NH2 (SMILES CC(C)C[C@H](NC(=O)[C@H](C)NC(=O)[C@H](C)NC(=O)[C@@H](NC(=O)[C@H](CO)NC(=O)[C@H](CC(C)C)NC(=O)[C@H](CCC(=O)O)NC(=O)[C@H](CO)NC(=O)[C@H](C)NC(=O)CC[C@H](NC(=O)CCCCCCCCCCCCCCCCC(=O)O)C(=O)O)[C@@H](C)O)C(=O)NCC(=O)N[C@@H](CCCNC(=N)N)C(=O)N[C@@H](CC(C)C)C(=O)N[C@@H](CO)C(=O)N[C@@H](C)C(=O)N[C@@H](CCC(=O)O)C(=O)N[C@@H](CC(C)C)C(=O)N[C@@H](Cc1c[nH]cn1)C(=O)N[C@@H](CCC(=O)O)C(=O)N[C@@H](CC(C)C)C(=O)N[C@@H](C)C(=O)N[C@H](C(=O)N[C@@H](CC(C)C)C(=O)N1CCC[C@H]1C(=O)N[C@@H](CCCNC(=N)N)C(=O)N[C@H](C(=O)N[C@@H](CCC(=O)O)C(=O)N[C@H](C(=O)NCC(=O)N[C@@H](CO)C(=O)NCC(=O)N1CCC[C@H]1C(=O)N1CCC[C@H]1C(N)=O)[C@@H](C)O)[C@@H](C)O)[C@@H](C)O) [[N-terminal(C18 diacid-gGlu), des1, 30S, 31G, 32P]mimylin] | 95 | 413
2 | Ac-ASELSTAALGRLSAK([γGlu-C20 diacid])LHELATLPRTETGSGSP-NH2 [[N-terminal(acetyl), des1, 16K(C20 diacid-gGlu), 30S, 31G]mimylin] | 44 | 100
3 | {C20 diacid-γGlu}-ASELSTAALGRLSAELHELATLPHTETGSGSP-NH2 (SMILES CC(C)C[C@H](NC(=O)[C@H](C)NC(=O)[C@H](C)NC(=O)[C@@H](NC(=O)[C@H](CO)NC(=O)[C@H](CC(C)C)NC(=O)[C@H](CCC(=O)O)NC(=O)[C@H](CO)NC(=O)[C@H](C)NC(=O)CC[C@H](NC(=O)CCCCCCCCCCCCCCCCCCC(=O)O)C(=O)O)[C@@H](C)O)C(=O)NCC(=O)N[C@@H](CCCNC(=N)N)C(=O)N[C@@H](CC(C)C)C(=O)N[C@@H](CO)C(=O)N[C@@H](C)C(=O)N[C@@H](CCC(=O)O)C(=O)N[C@@H](CC(C)C)C(=O)N[C@@H](Cc1c[nH]cn1)C(=O)N[C@@H](CCC(=O)O)C(=O)N[C@@H](CC(C)C)C(=O)N[C@@H](C)C(=O)N[C@H](C(=O)N[C@@H](CC(C)C)C(=O)N1CCC[C@H]1C(=O)N[C@@H](Cc1c[nH]cn1)C(=O)N[C@H](C(=O)N[C@@H](CCC(=O)O)C(=O)N[C@H](C(=O)NCC(=O)N[C@@H](CO)C(=O)NCC(=O)N[C@@H](CO)C(=O)N1CCC[C@H]1C(N)=O)[C@@H](C)O)[C@@H](C)O)[C@@H](C)O) [[N-terminal(C20 diacid-gGlu), des1, 25H, 30S, 31G]mimylin] | 22 | 185
4 | Ac-ASELSTAALGRLSAELHK([γGlu-C20 diacid])LATLPRTETGSGSP-NH2 [[N-terminal(acetyl), des1, 19K(C20 diacid-gGlu), 30S, 31G]mimylin] | 22 | 47
5 | {C20 diacid-γGlu}-ASELSTAALGRLS[dE]ELHELATLPRTETGSGSP-NH2 (SMILES CC(C)C[C@H](NC(=O)[C@H](C)NC(=O)[C@H](C)NC(=O)[C@@H](NC(=O)[C@H](CO)NC(=O)[C@H](CC(C)C)NC(=O)[C@H](CCC(=O)O)NC(=O)[C@H](CO)NC(=O)[C@H](C)NC(=O)CC[C@H](NC(=O)CCCCCCCCCCCCCCCCCCC(=O)O)C(=O)O)[C@@H](C)O)C(=O)NCC(=O)N[C@@H](CCCNC(=N)N)C(=O)N[C@@H](CC(C)C)C(=O)N[C@@H](CO)C(=O)N[C@H](CCC(=O)O)C(=O)N[C@@H](CCC(=O)O)C(=O)N[C@@H](CC(C)C)C(=O)N[C@@H](Cc1c[nH]cn1)C(=O)N[C@@H](CCC(=O)O)C(=O)N[C@@H](CC(C)C)C(=O)N[C@@H](C)C(=O)N[C@H](C(=O)N[C@@H](CC(C)C)C(=O)N1CCC[C@H]1C(=O)N[C@@H](CCCNC(=N)N)C(=O)N[C@H](C(=O)N[C@@H](CCC(=O)O)C(=O)N[C@H](C(=O)NCC(=O)N[C@@H](CO)C(=O)NCC(=O)N[C@@H](CO)C(=O)N1CCC[C@H]1C(N)=O)[C@@H](C)O)[C@@H](C)O)[C@@H](C)O) [[N-terminal(C20 diacid-gGlu), des1, 15e, 30S, 31G]mimylin] | 23 | 94

More lines, now with the values ahead:

Row | hCTR funct. EC50 (pM), tested with HSA [1] [pM] | hAmylin-R funct. EC50 (pM), tested with HSA [2] [pM] | Binder
6 | 37 | 72 | Ac-ASK([γGlu-C20 diacid])LSTAALGRLSAELHELATLPRTETGSGSP-NH2 [[N-terminal(acetyl), des1, 4K(C20 diacid-gGlu), 30S, 31G]mimylin]
7 | 45 | 71 | {C20 diacid-γGlu}-ASGLSTAALGRLSAELHELATYPRTETGSGSP-NH2 [[N-terminal(C20 diacid-gGlu), des1, 4G, 23Y, 30S, 31G]mimylin]
8 | 56 | 134 | {C20 diacid-γGlu}-ASELSTAALGRLSAELHELATLPRTETGTGTP-NH2 (SMILES CC(C)C[C@H](NC(=O)[C@H](C)NC(=O)[C@H](C)NC(=O)[C@@H](NC(=O)[C@H](CO)NC(=O)[C@H](CC(C)C)NC(=O)[C@H](CCC(=O)O)NC(=O)[C@H](CO)NC(=O)[C@H](C)NC(=O)CC[C@H](NC(=O)CCCCCCCCCCCCCCCCCCC(=O)O)C(=O)O)[C@@H](C)O)C(=O)NCC(=O)N[C@@H](CCCNC(=N)N)C(=O)N[C@@H](CC(C)C)C(=O)N[C@@H](CO)C(=O)N[C@@H](C)C(=O)N[C@@H](CCC(=O)O)C(=O)N[C@@H](CC(C)C)C(=O)N[C@@H](Cc1c[nH]cn1)C(=O)N[C@@H](CCC(=O)O)C(=O)N[C@@H](CC(C)C)C(=O)N[C@@H](C)C(=O)N[C@H](C(=O)N[C@@H](CC(C)C)C(=O)N1CCC[C@H]1C(=O)N[C@@H](CCCNC(=N)N)C(=O)N[C@H](C(=O)N[C@@H](CCC(=O)O)C(=O)N[C@H](C(=O)NCC(=O)N[C@H](C(=O)NCC(=O)N[C@H](C(=O)N1CCC[C@H]1C(N)=O)[C@@H](C)O)[C@@H](C)O)[C@@H](C)O)[C@@H](C)O)[C@@H](C)O) [[N-terminal(C20 diacid-gGlu), des1, 30T, 31G, 32T]mimylin]
9 | 40 | 85 | {C20 diacid-γGlu}-ASELSTAALGRLSEELHELATLPRTETGSGSP-NH2 (SMILES CC(C)C[C@H](NC(=O)[C@H](C)NC(=O)[C@H](C)NC(=O)[C@@H](NC(=O)[C@H](CO)NC(=O)[C@H](CC(C)C)NC(=O)[C@H](CCC(=O)O)NC(=O)[C@H](CO)NC(=O)[C@H](C)NC(=O)CC[C@H](NC(=O)CCCCCCCCCCCCCCCCCCC(=O)O)C(=O)O)[C@@H](C)O)C(=O)NCC(=O)N[C@@H](CCCNC(=N)N)C(=O)N[C@@H](CC(C)C)C(=O)N[C@@H](CO)C(=O)N[C@@H](CCC(=O)O)C(=O)N[C@@H](CCC(=O)O)C(=O)N[C@@H](CC(C)C)C(=O)N[C@@H](Cc1c[nH]cn1)C(=O)N[C@@H](CCC(=O)O)C(=O)N[C@@H](CC(C)C)C(=O)N[C@@H](C)C(=O)N[C@H](C(=O)N[C@@H](CC(C)C)C(=O)N1CCC[C@H]1C(=O)N[C@@H](CCCNC(=N)N)C(=O)N[C@H](C(=O)N[C@@H](CCC(=O)O)C(=O)N[C@H](C(=O)NCC(=O)N[C@@H](CO)C(=O)NCC(=O)N[C@@H](CO)C(=O)N1CCC[C@H]1C(N)=O)[C@@H](C)O)[C@@H](C)O)[C@@H](C)O) [[N-terminal(C20 diacid-gGlu), des1, 15E, 30S, 31G]mimylin]
10 | 48 | 230 | {C20 diacid-γGlu}-ASELSTAALGHLSAELHELATLPRTETGSGSP-NH2 [[N-terminal(C20 diacid-gGlu), des1, 12H, 30S, 31G]mimylin]
11 | 11 | 17 | {C18 diacid-γGlu}-ASELSTAVLGRLSAELHELATLPRTETGSGSP-NH2 (SMILES CC(C)C[C@H](NC(=O)[C@H](CCC(=O)O)NC(=O)[C@H](Cc1c[nH]cn1)NC(=O)[C@H](CC(C)C)NC(=O)[C@H](CCC(=O)O)NC(=O)[C@H](C)NC(=O)[C@H](CO)NC(=O)[C@H](CC(C)C)NC(=O)[C@H](CCCNC(=N)N)NC(=O)CNC(=O)[C@H](CC(C)C)NC(=O)[C@@H](NC(=O)[C@H](C)NC(=O)[C@@H](NC(=O)[C@H](CO)NC(=O)[C@H](CC(C)C)NC(=O)[C@H](CCC(=O)O)NC(=O)[C@H](CO)NC(=O)[C@H](C)NC(=O)CC[C@H](NC(=O)CCCCCCCCCCCCCCCCC(=O)O)C(=O)O)[C@@H](C)O)C(C)C)C(=O)N[C@@H](C)C(=O)N[C@H](C(=O)N[C@@H](CC(C)C)C(=O)N1CCC[C@H]1C(=O)N[C@@H](CCCNC(=N)N)C(=O)N[C@H](C(=O)N[C@@H](CCC(=O)O)C(=O)N[C@H](C(=O)NCC(=O)N[C@@H](CO)C(=O)NCC(=O)N[C@@H](CO)C(=O)N1CCC[C@H]1C(N)=O)[C@@H](C)O)[C@@H](C)O)[C@@H](C)O) [[N-terminal(C18 diacid-gGlu), des1, 9V, 30S, 31G]mimylin]
